Results taken from PMC3573756.

Tests used:
[1] = target: cardiac ryanodine receptor (RyR2) (rat (endogenous in rat ventricular myocytes)) (UniProt B0LPN4); assay: confocal fluorescence wash-in and wash-out kinetics
[2] = target: cardiac ryanodine receptor (RyR2) (rat (endogenous in rat ventricular myocytes)) (UniProt B0LPN4); assay: other fluorescence titration
[3] = target: cardiac ryanodine receptor (RyR2) (rat (endogenous in rat ventricular myocytes)) (UniProt B0LPN4); assay: FRET or BRET
[4] = target: cardiac ryanodine receptor (RyR2) (rat (endogenous in rat ventricular myocytes)) (UniProt B0LPN4); assay: FRET or BRET; remark: listed apart in the source

Chain of UniProt B0LPN4 (B0LPN4 whole entry): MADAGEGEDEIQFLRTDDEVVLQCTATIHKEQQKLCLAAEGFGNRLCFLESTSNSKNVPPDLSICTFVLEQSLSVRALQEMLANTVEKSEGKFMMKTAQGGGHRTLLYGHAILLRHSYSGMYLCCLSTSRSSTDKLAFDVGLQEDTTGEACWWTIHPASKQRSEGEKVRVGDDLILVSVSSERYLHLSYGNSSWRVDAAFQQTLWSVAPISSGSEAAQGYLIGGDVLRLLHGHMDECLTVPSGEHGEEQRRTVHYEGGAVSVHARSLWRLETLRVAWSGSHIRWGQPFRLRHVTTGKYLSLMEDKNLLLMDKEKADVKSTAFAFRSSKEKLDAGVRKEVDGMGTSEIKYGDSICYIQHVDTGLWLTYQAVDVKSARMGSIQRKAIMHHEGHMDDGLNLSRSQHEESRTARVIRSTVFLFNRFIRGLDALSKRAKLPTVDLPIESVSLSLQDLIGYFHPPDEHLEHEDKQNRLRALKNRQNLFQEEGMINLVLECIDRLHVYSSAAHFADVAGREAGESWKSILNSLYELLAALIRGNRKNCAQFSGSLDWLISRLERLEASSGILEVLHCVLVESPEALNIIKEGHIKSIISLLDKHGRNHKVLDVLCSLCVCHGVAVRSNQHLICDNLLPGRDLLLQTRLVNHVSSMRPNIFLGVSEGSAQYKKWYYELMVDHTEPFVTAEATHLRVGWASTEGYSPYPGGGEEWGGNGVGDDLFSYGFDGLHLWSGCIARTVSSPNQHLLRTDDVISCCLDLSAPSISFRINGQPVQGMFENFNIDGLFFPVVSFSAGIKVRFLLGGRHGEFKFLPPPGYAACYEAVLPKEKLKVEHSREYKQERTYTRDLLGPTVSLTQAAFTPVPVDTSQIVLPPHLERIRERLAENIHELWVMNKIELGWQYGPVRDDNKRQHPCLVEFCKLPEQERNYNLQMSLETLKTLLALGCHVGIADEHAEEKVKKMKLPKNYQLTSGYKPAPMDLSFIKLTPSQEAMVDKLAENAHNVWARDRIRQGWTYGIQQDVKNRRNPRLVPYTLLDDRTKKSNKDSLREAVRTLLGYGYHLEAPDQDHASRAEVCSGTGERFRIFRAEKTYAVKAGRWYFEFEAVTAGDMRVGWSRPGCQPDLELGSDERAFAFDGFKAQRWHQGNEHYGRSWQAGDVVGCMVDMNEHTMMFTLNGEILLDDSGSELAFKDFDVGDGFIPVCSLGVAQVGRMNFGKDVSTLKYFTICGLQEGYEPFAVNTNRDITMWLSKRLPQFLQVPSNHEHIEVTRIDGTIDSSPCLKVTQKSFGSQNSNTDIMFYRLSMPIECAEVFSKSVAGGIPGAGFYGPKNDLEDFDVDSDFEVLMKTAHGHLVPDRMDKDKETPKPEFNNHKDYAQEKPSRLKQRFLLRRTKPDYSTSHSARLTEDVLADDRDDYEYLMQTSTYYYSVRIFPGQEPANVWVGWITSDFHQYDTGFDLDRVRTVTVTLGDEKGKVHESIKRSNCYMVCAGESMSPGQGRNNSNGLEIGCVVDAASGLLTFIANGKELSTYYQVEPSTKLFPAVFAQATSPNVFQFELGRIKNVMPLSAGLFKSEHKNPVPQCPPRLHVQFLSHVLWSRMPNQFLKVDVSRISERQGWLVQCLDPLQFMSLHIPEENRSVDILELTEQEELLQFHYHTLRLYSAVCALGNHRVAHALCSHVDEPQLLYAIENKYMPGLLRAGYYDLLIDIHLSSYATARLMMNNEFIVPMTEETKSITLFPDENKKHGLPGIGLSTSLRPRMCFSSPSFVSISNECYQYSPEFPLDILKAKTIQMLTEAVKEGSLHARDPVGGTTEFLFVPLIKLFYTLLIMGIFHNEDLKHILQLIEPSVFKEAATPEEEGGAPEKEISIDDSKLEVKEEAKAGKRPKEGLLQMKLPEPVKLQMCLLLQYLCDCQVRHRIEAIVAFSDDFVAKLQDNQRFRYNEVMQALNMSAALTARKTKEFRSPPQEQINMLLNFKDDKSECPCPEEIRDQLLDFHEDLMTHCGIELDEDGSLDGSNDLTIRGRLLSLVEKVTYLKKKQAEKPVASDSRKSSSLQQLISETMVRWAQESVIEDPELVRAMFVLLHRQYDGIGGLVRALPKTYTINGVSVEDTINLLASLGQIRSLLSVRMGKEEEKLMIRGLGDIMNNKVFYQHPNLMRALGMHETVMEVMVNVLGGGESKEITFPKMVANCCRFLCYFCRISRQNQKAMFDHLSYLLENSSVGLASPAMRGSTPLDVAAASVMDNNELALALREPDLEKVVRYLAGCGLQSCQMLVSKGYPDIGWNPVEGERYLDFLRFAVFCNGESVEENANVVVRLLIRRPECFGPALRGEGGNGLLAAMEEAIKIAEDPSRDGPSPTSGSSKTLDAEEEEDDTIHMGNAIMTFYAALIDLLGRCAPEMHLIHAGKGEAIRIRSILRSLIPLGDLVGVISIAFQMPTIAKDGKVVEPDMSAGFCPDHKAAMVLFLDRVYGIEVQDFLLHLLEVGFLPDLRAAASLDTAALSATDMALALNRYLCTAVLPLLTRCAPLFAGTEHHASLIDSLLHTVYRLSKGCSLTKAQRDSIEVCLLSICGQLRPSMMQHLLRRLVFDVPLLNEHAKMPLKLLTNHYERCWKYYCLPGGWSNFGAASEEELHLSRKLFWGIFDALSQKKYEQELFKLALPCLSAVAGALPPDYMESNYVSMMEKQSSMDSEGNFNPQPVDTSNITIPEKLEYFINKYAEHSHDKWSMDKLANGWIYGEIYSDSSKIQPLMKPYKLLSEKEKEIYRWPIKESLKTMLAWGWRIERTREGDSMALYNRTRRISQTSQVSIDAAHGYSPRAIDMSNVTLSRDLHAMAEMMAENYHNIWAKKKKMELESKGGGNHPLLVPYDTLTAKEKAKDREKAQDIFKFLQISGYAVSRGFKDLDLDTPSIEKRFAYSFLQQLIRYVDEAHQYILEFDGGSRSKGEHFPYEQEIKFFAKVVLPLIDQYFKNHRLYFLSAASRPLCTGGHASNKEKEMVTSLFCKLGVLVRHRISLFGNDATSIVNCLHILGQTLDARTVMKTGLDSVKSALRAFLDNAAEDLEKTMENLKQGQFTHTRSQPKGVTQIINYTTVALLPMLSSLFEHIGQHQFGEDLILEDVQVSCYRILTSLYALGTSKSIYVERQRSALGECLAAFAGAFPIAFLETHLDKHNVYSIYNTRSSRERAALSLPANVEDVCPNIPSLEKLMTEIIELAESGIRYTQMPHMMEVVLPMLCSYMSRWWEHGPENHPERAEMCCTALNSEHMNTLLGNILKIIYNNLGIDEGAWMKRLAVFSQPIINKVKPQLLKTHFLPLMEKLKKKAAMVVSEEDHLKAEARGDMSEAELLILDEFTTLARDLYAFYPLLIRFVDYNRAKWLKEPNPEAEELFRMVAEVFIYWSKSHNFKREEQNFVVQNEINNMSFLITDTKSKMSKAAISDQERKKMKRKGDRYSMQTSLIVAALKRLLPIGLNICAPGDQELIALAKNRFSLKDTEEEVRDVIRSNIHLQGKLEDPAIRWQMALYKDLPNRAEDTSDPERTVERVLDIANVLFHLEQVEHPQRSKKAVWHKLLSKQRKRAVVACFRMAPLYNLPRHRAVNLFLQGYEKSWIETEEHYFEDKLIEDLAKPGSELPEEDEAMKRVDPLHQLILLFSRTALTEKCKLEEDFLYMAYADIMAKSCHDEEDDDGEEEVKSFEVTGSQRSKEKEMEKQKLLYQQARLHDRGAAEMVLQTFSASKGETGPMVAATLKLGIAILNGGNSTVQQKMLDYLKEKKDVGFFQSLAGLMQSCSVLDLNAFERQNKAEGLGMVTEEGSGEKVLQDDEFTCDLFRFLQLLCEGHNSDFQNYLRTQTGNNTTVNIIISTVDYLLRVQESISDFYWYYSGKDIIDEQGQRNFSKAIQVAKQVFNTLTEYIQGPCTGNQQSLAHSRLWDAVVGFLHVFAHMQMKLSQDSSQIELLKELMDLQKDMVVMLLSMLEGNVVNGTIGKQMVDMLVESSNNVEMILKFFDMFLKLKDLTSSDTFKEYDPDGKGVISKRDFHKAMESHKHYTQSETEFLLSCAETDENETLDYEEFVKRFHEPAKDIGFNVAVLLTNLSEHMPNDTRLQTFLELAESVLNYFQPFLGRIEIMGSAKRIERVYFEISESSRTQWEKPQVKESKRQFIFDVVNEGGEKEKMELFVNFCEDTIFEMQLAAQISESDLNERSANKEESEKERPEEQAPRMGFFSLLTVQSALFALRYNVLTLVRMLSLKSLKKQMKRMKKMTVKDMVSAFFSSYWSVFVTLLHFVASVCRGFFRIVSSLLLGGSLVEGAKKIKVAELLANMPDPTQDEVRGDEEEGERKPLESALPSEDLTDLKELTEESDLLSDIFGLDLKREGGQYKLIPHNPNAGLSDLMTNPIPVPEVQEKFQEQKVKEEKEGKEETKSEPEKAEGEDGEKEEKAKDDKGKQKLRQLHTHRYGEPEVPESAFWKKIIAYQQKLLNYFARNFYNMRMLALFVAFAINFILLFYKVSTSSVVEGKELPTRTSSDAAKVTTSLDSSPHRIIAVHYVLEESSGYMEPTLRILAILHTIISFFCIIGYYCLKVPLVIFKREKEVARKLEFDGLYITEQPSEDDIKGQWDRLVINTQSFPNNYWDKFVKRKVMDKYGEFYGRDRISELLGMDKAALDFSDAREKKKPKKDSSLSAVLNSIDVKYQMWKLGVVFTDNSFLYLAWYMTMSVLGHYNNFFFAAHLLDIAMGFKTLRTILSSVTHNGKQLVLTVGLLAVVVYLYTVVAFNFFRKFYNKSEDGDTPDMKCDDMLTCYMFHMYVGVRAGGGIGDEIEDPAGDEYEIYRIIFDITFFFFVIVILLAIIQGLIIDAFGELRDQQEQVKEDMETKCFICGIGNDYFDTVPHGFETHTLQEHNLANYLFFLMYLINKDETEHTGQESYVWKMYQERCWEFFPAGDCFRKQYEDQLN

fold faster association after pre-saturation with NF-DPc10 against control [1] [fold]	percent faster τ (wash-in) with ryanodine plus caffeine against control [1] [%]	Kd [2] [µM]	stoichiometry N (DPc10 per RyR2 monomer) [2]	Kd [3] [µM]	Kd [4] [µM]	Substance
2	21	0.48	1			DPc10 labeled with 5-carboxyfluorescein at its N-terminus (F-DPc10) (peptide)
				0.45	0.61	DPc10 labeled with HiLyte Fluor 647 on the N-terminus (HF647-DPc10) (peptide)
